From the supplement of paper PMC5998384 come the findings set out here.

Data set [1] deals with HeLa Kyoto. The data set can be described thus: melting temperature (median over replicates), in situ; higher = more thermally stable.
In data set [2] the test system is HeLa Kyoto. Description: thermal stability score vs G1/S (z-score of summed log2 fold changes over temperatures); higher = more thermally stable than in G1/S.
The subject of data set [3] is HeLa Kyoto. The data set can be described thus: solubility in G1/S (NP-40 vs SDS abundance) (log2 ratio); higher = more soluble. Conditions: cell cycle stage: G1/S.
In data set [4] the test system is HeLa Kyoto. The data set can be described thus: solubility change mitosis vs G1/S (difference of NP-40 vs SDS log2 ratios) (log2 ratio difference); higher = more soluble in mitosis.
The mark [5] stands for this setting: cell cycle stage: early G1 (4.5 h after nocodazole release).
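Throughout, for melting temperature (median over replicates), in situ: HeLa Kyoto cells synchronized by double thymidine or nocodazole block, proteins quantified by TMT10plex mass spectrometry, three independent biological replicates.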
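Throughout, for solubility change mitosis vs G1/S (difference of NP-40 vs SDS log2 ratios): synchronized HeLa Kyoto cells (double thymidine block for G1/S, nocodazole release for mitosis), protein amounts in NP-40 versus SDS lysates quantified by mass spectrometry, three biological replicates.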
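Throughout, for solubility in G1/S (NP-40 vs SDS abundance): HeLa Kyoto cells arrested at G1/S by double thymidine block, proteins quantified by TMT10plex mass spectrometry in mild NP-40 versus SDS extracts, three biological replicates.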
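Throughout, for thermal stability score vs G1/S (z-score of summed log2 fold changes over temperatures): synchronized HeLa Kyoto cells, proteins quantified by TMT10plex mass spectrometry, three biological replicates, mitosis taken 0.5 h after nocodazole release, G1/S directly after double thymidine block.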

On to “MAAAGLVAVAAAAEYSGTVASGGNLPGVHCGPSSGAGPGFGPGSWSRSLDRALEEAAVTGVLSLSGRKLREFPRGAANHDLTDTTRADLSRNRLSEIPIEACHFVSLENLNLYQNCIRYIPEAILNLQALTFLNISRNQLSTLPVHLCNLPLKVLIASNNKLVSLPEEIGHLRHLMELDVSCNEIQTIPSQIGNLEALRDLNVRRNHLVHLPEELAELPLIRLDFSCNKITTIPVCYRNLRHLQTITLDNNPLQSPPAQICIKGKVHIFKYLNIQACKIAPDLPDYDRRPLGFGSCHEELYSSRPYGALDSGFNSVDSGDKRWSGNEPTDEFSDLPLRVAEITKEQRLRRESQYQENRGSLVVTNGGVEHDLDQIDYIDSCTAEEEEAEVRQPKGPDPDSLSSQFMAYIEQRRISHEGSPVKPVAIREFQKTEDMRRYLHQNRVPAEPSSLLSLSASHNQLSHTDLELHQRREQLVERTRREAQLAALQYEEEKIRTKQIQRDAVLDFVKQKASQSPQKQHPLLDGVDGECPFPSRRSQHTDDSALCMSLSGLNQVGCAATLPHSSAFTPLKSDDRPNALLSSPATETVHHSPAYSFPAAIQRNQPQRPESFLFRAGVRAETNKGHASPLPPSAAPTTDSTDSITGQNSRQREEELELIDQLRKHIEYRLKVSLPCDLGAALTDGVVLCHLANHVRPRSVPSIHVPSPAVPKLTMAKCRRNVENFLEACRKIGVPQEQLCLPLHILEEKGLSQVAVTVQALLELAPPKQQQHQLSAV [LRCH3]”, for which the melting temperature turned out to be 46.9 °C with HeLa Kyoto [1] (cell cycle stage: G1/S) and 48.8 °C with HeLa Kyoto [1] (cell cycle stage: mitosis). Further, the thermal stability score with HeLa Kyoto [2] (setting [5]) is 0.000114; with HeLa Kyoto [2] (cell cycle stage: mitosis), 1.36. For the same sequence, the “solubility in G1/S (log2)” value in the data set with HeLa Kyoto [3] was 0.108. In the data set with HeLa Kyoto [4], the “solubility change mitosis (log2)” value was -0.0597.

On to “MAAAGPSTRASSAAAAAALSRRGRRGRCDETAAAKTGAPGPASGPSLLVLSPPLLQPPLPPRPEESGCAGCLEPPGEAAALPCGHSLCRGCAQRAADAAGPGCPRCRARGPGWARRRARDDGQADSEVLGECARRSQPERCRPRRDGGAAAAGPRPEQEPRAAPAEPDFIFRAPIKLSKPGELREEYESLRKLREEKLQEEKPSEDQIHKLLPEDTETGKRKMDEQKKRDEPLVLKTNLERCPARLSDSENEEPSRGQMTQTHRSAFVSKNNSYSLAFLAGKLNSKVERSQSCSDTAQERAKSRVRAVPGNKAKVTTMTPASNPIIGVLLSTQNNRCVSAPDLTIEKRLPFSSLSSLASLHKPERSVSPESNDSISEELNHFKPIVCSPCTPPKRLPDGRVLSPLIIKSTPRNLNRSLQKQTSYEASPRILKKWEQIFQERQIKKTLSKATLTSLAPEMGEELLGSEGIHSSKEKPLVAVNTRLSGGQVLSEYTGPTSADLDHFPSVSQTKAEQDSDNKSSTEIPLETCCSSELKGGGSGTSLEREQFEGLGSTPDAKLDKTCISRAMKITTVNSVLPQNSVLGGVLKTKQQLKTLNHFDLTNGVLVESLSEEPLPSLRRGRKRHCKTKHLEQNGSLKKLRQTSGEVGLAPTDPVLREMEQKLQQEEEDRQLALQLQRMFDNERRTVSRRKGSVDQYLLRSSNMAGAK [RNF169]”, for which the melting temperature in the data set on HeLa Kyoto [1] (cell cycle stage: mitosis) was 51.8 °C. Also, the figures for the thermal stability score in the data set on HeLa Kyoto [2] (setting [5]) and with HeLa Kyoto [2] (cell cycle stage: mitosis) were 0.359 and 0.101, respectively. Further, the “solubility in G1/S (log2)” value in the data set with HeLa Kyoto [3] was -0.158. Moreover, the “solubility change mitosis (log2)” value in the data set on HeLa Kyoto [4] is 0.36.

Consider “MAAAGRLPSSWALFSPLLAGLALLGVGPVPARALHNVTAELFGAEAWGTLAAFGDLNSDKQTDLFVLRERNDLIVFLADQNAPYFKPKVKVSFKNHSALITSVVPGDYDGDSQMDVLLTYLPKNYAKSELGAVIFWGQNQTLDPNNMTILNRTFQDEPLIMDFNGDLIPDIFGITNESNQPQILLGGNLSWHPALTTTSKMRIPHSHAFIDLTEDFTADLFLTTLNATTSTFQFEIWENLDGNFSVSTILEKPQNMMVVGQSAFADFDGDGHMDHLLPGCEDKNCQKSTIYLVRSGMKQWVPVLQDFSNKGTLWGFVPFVDEQQPTEIPIPITLHIGDYNMDGYPDALVILKNTSGSNQQAFLLENVPCNNASCEEARRMFKVYWELTDLNQIKDAMVATFFDIYEDGILDIVVLSKGYTKNDFAIHTLKNNFEADAYFVKVIVLSGLCSNDCPRKITPFGVNQPGPYIMYTTVDANGYLKNGSAGQLSQSAHLALQLPYNVLGLGRSANFLDHLYVGIPRPSGEKSIRKQEWTAIIPNSQLIVIPYPHNVPRSWSAKLYLTPSNIVLLTAIALIGVCVFILAIIGILHWQEKKADDREKRQEAHRFHFDAM [ITFG1]”, for which the melting temperature in the data set with HeLa Kyoto [1] (cell cycle stage: G1/S) was 55.9 °C; with HeLa Kyoto [1] (cell cycle stage: mitosis), 57.5 °C. In addition, the figures for the thermal stability score in the data set with HeLa Kyoto [2] (setting [5]) and in the data set on HeLa Kyoto [2] (cell cycle stage: mitosis) were 0.328 and 0.713, respectively. Also, in the data set on HeLa Kyoto [3], the “solubility in G1/S (log2)” value turned out to be 0.327. The “solubility change mitosis (log2)” value with HeLa Kyoto [4] was -0.259.

Take “MAAAGVVSGKIIYEQEGVYIHSSCGKTNDQDGLISGILRVLEKDAEVIVDWRPLDDALDSSSILYARKDSSSVVEWTQAPKERGHRGSEHLNSYEAEWDMVNTVSFKRKPHTNGDAPSHRNGKSKWSFLFSLTDLKSIKQNKEGMGWSYLVFCLKDDVVLPALHFHQGDSKLLIESLEKYVVLCESPQDKRTLLVNCQNKSLSQSFENLLDEPAYGLIQAGLLDRRKLLWAIHHWKKIKKDPYTATMIGFSKVTNYIFDSLRGSDPSTHQRPPSEMADFLSDAIPGLKINQQEEPGFEVITRIDLGERPVVQRREPVSLEEWTKNIDSEGRILNVDNMKQMIFRGGLSHALRKQAWKFLLGYFPWDSTKEERTQLQKQKTDEYFRMKLQWKSISQEQEKRNSRLRDYRSLIEKDVNRTDRTNKFYEGQDNPGLILLHDILMTYCMYDFDLGYVQGMSDLLSPLLYVMENEVDAFWCFASYMDQMHQNFEEQMQGMKTQLIQLSTLLRLLDSGFCSYLESQDSGYLYFCFRWLLIRFKREFSFLDILRLWEVMWTELPCTNFHLLLCCAILESEKQQIMEKHYGFNEILKHINELSMKIDVEDILCKAEAISLQMVKCKELPQAVCEILGLQGSEVTTPDSDVGEDENVVMTPCPTSAFQSNALPTLSASGARNDSPTQIPVSSDVCRLTPA [TBC1D15]”: the results for the melting temperature in the data set with HeLa Kyoto [1] (cell cycle stage: G1/S) and with HeLa Kyoto [1] (cell cycle stage: mitosis) were 49.7 °C and 50.2 °C, respectively. The thermal stability score with HeLa Kyoto [2] (setting [5]) is -0.47; with HeLa Kyoto [2] (cell cycle stage: mitosis), 0.539. In addition, the “solubility in G1/S (log2)” value with HeLa Kyoto [3] was -0.164. Besides, the “solubility change mitosis (log2)” value with HeLa Kyoto [4] was -0.17.

Consider “MAAAGWRDGSGQEKYRLVVVGGGGVGKSALTIQFIQSYFVTDYDPTIEDSYTKQCVIDDRAARLDILDTAGQEEFGAMREQYMRTGEGFLLVFSVTDRGSFEEIYKFQRQILRVKDRDEFPMILIGNKADLDHQRQVTQEEGQQLARQLKVTYMEASAKIRMNVDQAFHELVRVIRKFQEQECPPSPEPTRKEKDKKGCHCVIF [RRAS2]”, for which the melting temperature was 55.4 °C with HeLa Kyoto [1] (cell cycle stage: G1/S) and 55.3 °C in the data set with HeLa Kyoto [1] (cell cycle stage: mitosis). Moreover, the thermal stability score in the data set with HeLa Kyoto [2] (setting [5]) was determined as 1.24; with HeLa Kyoto [2] (cell cycle stage: mitosis) it was 1.12. In addition, in the data set with HeLa Kyoto [3], the “solubility in G1/S (log2)” value was -0.172. Further, in the data set on HeLa Kyoto [4], the “solubility change mitosis (log2)” value was -0.0849.
